Experimental data as given in the DeepSol protein solubility set.

Assay: soluble on expression in E. coli; label from the status in PepcDB or PDB records

Sequence	soluble on expression in E. coli
MSPGAWPRPRVVVSACLGFAAVRYSGELIPDKVVAALKEHVDFVPVCPEVEIGLGVPRPVVRLVRGEGGGPRMVQPKTGEDLTERMRAFSQRFLQGLGEVEGFLLKNRSPSCALKDAKRYAHAEGGGVVGKGPGLFAQAVEEAFPLLPKEDEGRLTNPRIRAHFFTRIFALARLRRVEDLPGLMAFHARYKLLLLAYNQKEARALGRLLAGAKGRPFPEVHGAYEEGFLRATERPWRLGAMADALLHAFGHFKKALAPREKAHFLDLLADFREERLPLEAPLALLASWARRFAEPYVEAQALLEPYPRALMHVPGA	soluble
MSPGPQSGGQERGSMERKMVELEDTGLTFATEVDLERLQALAAEWLQVIGEDPGREGLLKTPERVAKAWAFLTRGYRQRLEEVVGGAVFPAEGSEMVVVKGVEFYSMCEHHLLPFFGKVHIGYIPDGKILGLSKFARIVDMFARRLQVQERLAVQIAEAIQEVLEPQGVGVVVEGVHLCMMMRGVEKQHSRTVTSAMLGVFRENQKTREEFLSHLRDGTA	soluble
MSPIVSVPDITAPVENVPAILPKVVPGELIVNKPTGGDSDELFQYLVDILASPVYDVAIESPLELAEKLSDRLGVNFYIKREDKQRVFSFKLRGAYNMMSNLSREELDKGVITASAGNHAQGVALAGQRLNCVAKIVMPTTTPQIKIDAVRALGGDVVLYGKTFDEAQTHALELSEKDGLKYIPPFDDPGVIKGQGTIGTEINRQLKDIHAVFIPVGGGGLIAGVATFFKQIAPNTKIIGVEPYGAASMTLSLHEGHRVKLSNVDTFADGVAVALVGEYTFAKCQELIDGMVLVANDGISAAIKDVYDEGRNILETSGAVAIAGAAAYCEFYKIKNENIVAIASGANMDFSKLHKVTELAGLGSGK	soluble
MSPPDLEDEPFMENQDVAGENDLFVLDGRQDPPNLPQNHLEEVVGEIVENLERWHFAEILADGAEIHEDIIEDVGGDEVEEEEVDIDWVSPLSKEYSKPFSKS	not soluble
MSPPLAEERLTRIVQLLAERGTLRTAALTELLGVSSATIRRDLDVLAGRGLIRKLHGGAALAAPEPEAPLNQDQFYRDRQQVNHLGKQRLAGRALELIAPGQTLYLDAGTTALALAEALQRTPQLTRTLRVVTHGIDVAYVLNGECALYVVGGEVYGSTYSLTGPDALSTVSRYNYDLFFVSCTSIDPAGRLTNSNSVEAQQKASILRQSRRSVLIADQSKWGPPGFAPFAGFAEVSAWVTDRAPATARAAFEQAGVTVLEADASARELSADLEHHHHHH	soluble
MSPRCANLALKHYLLKPVQRIPQYRLLLTDYLKNLIEDAGDYRDTQDALAVVVEVANHANDTMKQGDNFQKLMQIQYSLNGHHEIVQPGRVFLKEGILMKLSRKVMQPRMFFLFNDALLYTTPVQSGMYKLNNMLSLAGMKVRKPTQEAYQNELKIESVERSFILSASSATERDEWLEAISRAIEEYAKKRITFCPSRSLDEADSENKEEVSPLGSKAPIWIPDTRATMCMICTSEFTLTWRRHHCRACGKIVCQACSSNKYGLDYLKNQPARVCEHCFQELQKLDHQHSPRIGSPGNHKSPSSALSSVLHSIPSGRKQKKIPAALKEVSANTEDSSMSGYLYRSKGNKKPWKHFWFVIKNKVLYTYAASEVRSEI	soluble
MSPTVRTARHDDYDDIVDLTSDVWADRAMADYIPDVFRDWVDDDGPNRKTLVVDVDGHAVGLAQAVILTETEAWFQGMRVDSDHRGKGFGSLLTEHLIEWAADAGASVGRSMVFSWNEAGLGQSLAAGFEAVTSFRWAHPDPADETPEMTVRNDPTNAWRYWQESDGRGVLSGLALDSGESWALSTLTRETLDRLAADQTVLTIGDDGPQGMACRVRTTDADGEQLAEYAVGVWSDVDAARALFTAIAADAATLGVDGTRVLIPETPRHVAQAAYASGNIDECPDFVLEIDGLEELS	not soluble
MSPVEAALETLAHTMGITVIETSKLGSTLNACFHPPTQTIFIKIGLDPVTRRCAIAHELGHAHYGHNCSTPGAERQADEWAAQQLLDVGDVEAVGLECEGSAAAMAAELGVTPHLLVLWMGMYERGRIQPEKRAC	not soluble
MSQFGATAIGIANIAMNGEVLDTWYPTPELVPASTSPSYSERLGAQDLPPKLLSLVRLDEDRLVEQVAVRTYIGDLDTPPIDAHDVFLRLHLLSHRLVRPLEINMDNAMSILSRVVWTNKGPCLPENFENIRMSLRNRGLIHVYGIDRLPRMVDYVVPTGVEITEAERVRLGAYLAEGTKVLREGYVSFNAGTLGAGRIEGRLYSGTVVGDNVDLGISASIVPDKPHAQLRVGANCVFGLGSAVMGINLGDNVRVGNNVVIDKETMVYFADRDITAAAAILDGQSDWQIHAESGRPEPVVRPT	soluble
MSQFISLTQYQLIEVQGADAEKYLQGQLTSDVVRLASGATTLTAHCDPKGKMNAIYRLFKVSSEQFFLLVKKDILPSGLDALKKYAVFSKVSFDLRDWQIIGVIGEKCGKITPNFSLEIDEKRSILLNETELPVNFNGDEKIWEVADIQAGLPNLSPQTQNEFIPQALNLQAIEQAISFTKGCYIGQETVARAKYRGANKRAMFIFKVQTQQEAEIGSEIEMQLEANWRKTGTITSAVNLDGVLWLQVVMNNDIDSEQQFRLLNSEILLERVQLPYSITELEHHHHHH	soluble
MSQGFKTEADVMRNTAHRVDDTNQEVSAELSRLRSIVDGVRASWEGTAQVSFDNLMQRWDASAKGLQDALQSISDNIRGNATSFENVEADNQSAFSAVGGQGLAL	not soluble
MSQHAFSPDENVHLSPKGWYRQASEKPGFIHDAAQAAAIEQLDRLWHELVDFKSKRNRFLGRSLRSPQVPRGLYFWGGVGRGKSFLMDAFYACVPYRRKRRIHFHHFMAETHRELRKFAGGKDPLLAYADQIAKATRLLCFDEFHVSDIADAMILGRLLSALLERGVVVVTTSNYAPDDLYPGGLQRQNFLPTIELIKRELDVLNVDGGHDYRLRELTREPLFMVPADAANEGKMEQLFRRVSTGAELAQKSITVLEREIAVKRMSPGVIWFDFMALCDGPRAQTDYLEIASEYHTVFLSGIPRLSAKQASIARRFTWLVDVFYDNRVKLIASADAPPEAIYTEGLQSGEFFRTASRLTEMQSKSYLELPHQSMTQSHDQPPPGVALLEHHHHHH	not soluble
MSQIIIKTPQEIEKMRVAGRLAAEVLEMITPFVKEGVTTAELDKICHEYIVKEQDAYPAPLNYHGFPKSICASINHVVCHGIPADKKLKNGDILNIDITVKKDGYHGDTSKMFMIGEPSVMAKKLVEVTHECLWKGIEVVKPGNHFGDIGAAIEKHAKKFGYSIVDAFCGHGIGANFHEPPHVMHHGKAGTGAMFEEGMIFTIEPMINIGKRAVSVLKDGWTAVTKDRSLSAQWEHTILVTKDGYEVLTLREEEKN	not soluble
MSQLLLNLEGKTKIKAIARKNDLCERKSSNLHHFCVEFHNNYEFLEIGLSEARSLASISDKNVLNSNRKAENYQKKWKNFEKESILKLNSIMEKISSHSQPSHHHTNASITLPYDATIQKIAEKEKNLSKLLKELSIVDSSLKEEKASFEKTQSALLKEKGKIEKDKLMLREEAQKQASMNAEVQKKELESQERLSVLNKQFMEENEKKVKLEQEELDSKNAYNDCLQLNIPNAESQMITDQLATLDEFYSDLNNNSSNEIMAEIPDFEEIIDLFNQFKSSMESQKDILNTLAGLEEQLGDHQLEIKSVRKDINKLKGLQGKQSFYKEELKLKKSALEEIQRKIDYDQDVLNSLKVVEKAAKPDDYLRPRNSRKESVFRKLPIPERSMQHDSDTLDTRKNSKTMLKNESTRHSNPGIRLLKVPNRDSDEESENSFDDGTTQDESGVNAFFGQLSDEKEESPTAVEFSMAAHLTEFSQRQAAAAAKMNMKTPEKKVVEIESDEDDDLDSSIIAPNRAKSKDDRKSDDSDDDLNDEEGDADQSIWGSDD	not soluble
MSQPRTVTVLGATGSIGHSTLDLIERNLDRYQVIALTANRNVKDLADAAKRTNAKRAVIADPSLYNDLKEALAGSSVEAAAGADALVEAAMMGADWTMAAIIGCAGLKATLAAIRKGKTVALANKESLVSAGGLMIDAVREHGTTLLPVDSEHNAIFQCFPHHNRDYVRRIIITASGGPFRTTSLAEMATVTPERAVQHPNWSMGAKISIDSATMMNKGLELIEAFHLFQIPLEKFEILVHPQSVIHSMVEYLDGSILAQIGSPDMRTPIGHTLAWPKRMETPAESLDFTKLRQMDFEAPDYERFPALTLAMESIKSGGARPAVMNAANEIAVAAFLDKKIGFLDIAKIVEKTLDHYTPATPSSLEDVFAIDNEARIQAAALMESLPA	soluble
MSRETNFNGTKRKRSDVAEKVAQRWKSVRYSAEMENMAPVNSNNDSDDCVIVSESKIIDLTNQEQDLSERIETNDTAKGAVFKLMKSDFYEREDFMGEVEDMITLKDIFGTETLKRSILFSFQYELDFLLRQFHQNVENITIVGQKGTIMPIEARAMDATLAVILKKVKLIEITMPPFASHHTKLIINFYDNGECKIFLPSNNFTSMETNLPQQVCWCSPLLKIGKEGLPVPFKRSLIEYLNSYHLKDIDELITKSVEEVNFAPLSELEFVYSTPSKFQSSGLLSFYNKLEKLSAGTSASDTAKHYLCQTSSIGTSLSRARDENLWTHLMIPLFTGIMSPPAKDTAGRKKAEILPTNSLINEYSQRKIKPYIIFPTEQEFVTSPLKWSSSGWFHFQYLQKKSYYEMLRNKFKVFYKQDPAMVTRRRGTTPAHSKFYMHCATNSAGPCDASQVFKELEWCLYTSANLSQTAWGTVSRKPRNYEAGVLYHSRRLANTRKVTCRTFTRDRRGCAGNPTHVAVPFTLPVIPYDLAEDECFCLARHEND	soluble
MSRFAPATPLLLSLLLTSCSPAQGVRVERITGGGMLYTVATVDPARDQLTLHWLNPATGKPYSSFAQLGSRLGKQGKKLLFATNSGIYMPGPKPLGLHVEGGKTLVGLNNAGKGGGNFALLPNGVFWLRGKKAGVTETQAYRKLGLAPDYATQSGPLLVANGKLHPDFNKSGTSFKVRSGVGVCGGGKVRFAISAGPVNFYSFATFFRDTLGCPDALYLDGSISAYATPDTDTQFTEFAGIWAVTARLEHHHHHH	soluble
MSRIEFIRKEEKKYHDFCYENYKLFEEGSWLYKPVKTVIELLPILDERTSPKVLDLGSGVGRNSIPIAKEIKNKNGKVICVDLLDSALDKLKLYSKEYEVEEVIETMKADIGHYDIAKNEYDLIVAVSTLEHVESENVFEKVIKKMASGTKNEGINCIIVNSEVEEIDISTNEKLDAMMEVNMKTKDMLSKLRQSYNGWEIVNQLVKPLEYKIVRDERDVLLKTNAITFAVKKKLEHHHHHH	not soluble
MSRIEQLISDIESYIDNCKYYPLSNVKIIVNKEQLEDMLTELRLKTPDEVKKYQKILSNKDAILADAKEQADAIINAAQIQTEELINEHEIMQRAYAQANELIEQATAQAQTILDNATEEANSIRYGAMQYTDDMLAKLQYIIEHSIKDNKEKYDSLLSGLENVLSVVNNNRNELSGIEENSTEESADTDASNETDSQSDDEE	not soluble
MSRKIPKEPTTRPAFNAYEKHVRDINNFVIPYQRENKYKKVVGETDLDVLKREYRFIRESEEEDAKSWETRLARRHYERLYKDYAIAELSQWREGSVGFRWLNQTEVLQGKGYSCCAATDCDSASELNTFEVPFTYEEDGETKATLVKVRLCRSCQVKMRESYRIAREKLK	soluble
MSRLPTTPCEQLKLDNQLCFALYSTSLQMTKVYKPLLQALGLTYPQYIAMLVLWERDGLTVGEISARMLTDPGSLTPLLKRLEGEGLITRTRSSEDERVVLLRLTDKGRALQRQAESIPACILESTGLDLPQLVALKDELLALRGNLQAPD	not soluble
MSRQCTHYGRWPQHGFTSLKKLRPQSVTSRIQPGSDVIVCAEMDEHWGYVGAKSRQRWLFYAYDRIRRTVVAHVFGERTLATLERLLSLLSAFEVVVWMTDGWPLYESRLKGKLHVISKRYTQRIERHNLNLRQHLARLVRKSLSFSKSVELHDKVIGHYLNIKHYQLEHHHHHH	not soluble
